Data on five molecules can be found in patent US20230272086A1 (CHIA TAI TIANQING PHARMACEUTICAL GROUP, published 2023).

In experiment [1] the target is T1, human ST2 (hST2, Interleukin-1 receptor-like 1 isoform A) on cells (human, UniProt Q01638 19-556).
T1 construct: the same id is used for hST2 naturally expressed on KU812 cells and on human CD4+ T cells; also called HEK293T-hST2-NFκB-Luciferase; KU812-NFκB-Luciferase
T1 sequence: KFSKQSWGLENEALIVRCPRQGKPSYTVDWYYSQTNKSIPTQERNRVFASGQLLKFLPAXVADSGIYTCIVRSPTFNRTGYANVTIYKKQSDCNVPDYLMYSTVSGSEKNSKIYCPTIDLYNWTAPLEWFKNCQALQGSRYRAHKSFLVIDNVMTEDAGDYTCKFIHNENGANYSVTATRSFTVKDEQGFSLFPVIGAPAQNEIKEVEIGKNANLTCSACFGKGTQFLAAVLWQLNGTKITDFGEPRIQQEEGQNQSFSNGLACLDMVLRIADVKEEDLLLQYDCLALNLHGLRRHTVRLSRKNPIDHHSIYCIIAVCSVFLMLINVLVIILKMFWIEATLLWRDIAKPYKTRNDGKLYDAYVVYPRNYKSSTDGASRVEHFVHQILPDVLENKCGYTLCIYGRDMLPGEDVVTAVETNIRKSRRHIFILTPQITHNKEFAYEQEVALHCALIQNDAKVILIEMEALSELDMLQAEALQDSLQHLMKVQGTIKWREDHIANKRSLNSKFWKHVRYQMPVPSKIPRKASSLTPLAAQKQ
Kind of experiment: flow cytometry on HEK293T-hST2-NFκB-Luciferase cells. Here is the method:
3 × 10⁵ HEK293T-hST2-NFκB-Luciferase or HEK293T-Cyno-ST2-NFκB-Luciferase cells were added to a 96-well culture plate. Serially diluted anti-ST2 antibodies (serially diluted 4-fold from an initial concentration of 667 nM to 8 concentrations in binding assays with the HEK293T-hST2-NFκB-Luciferase cells; serially diluted 4-fold from an initial concentration of 400 nM to 8 concentrations in binding assays with the HEK293T-Cyno-ST2-NFκB-Luciferase cells) were added to the cell suspensions. After the plate was incubated at room temperature for 60 min, the cells were washed 3 times with PBS. […] The cells were washed 3 times with PBS and resuspended in 100 µ1L of PBS, and then the fluorescence signals were analyzed and detected using a flow cytometer (BD, Accuri C6). The binding capacity of the anti-ST2 antibodies to hST2 and cyno-ST2 on the cell line surfaces was measured in terms of the mean fluorescence intensity (MFI) of staining. The data were analyzed using GraphPad Prism5, and the EC₅₀ values were calculated. The EC₅₀ values for the binding of the anti-ST2 chimeric antibodies to hST2 and Cyno-ST2 at the cellular level are shown in Table 8 and FIGS. 7-8.
The humanized antibodies hz31C81-1.1 (the amino acid sequence of the heavy chain set forth in SEQ ID NO: 75 and the amino acid sequence of the light chain set forth in SEQ ID NO: 81) and hz31C8-1.2 (the amino acid sequence of the heavy chain set forth in SEQ ID NO: 77 and the amino acid sequence of the light chain set forth in SEQ ID NO: 81) were subjected to affinity, binding, blocking and cell function analyses using the methods described in Example 4, Example 5, Example 6, Example 7, Example 8, Example 9 and Example 10. In the present disclosure, “hz” and “xi” denote humanized antibodies and chimeric antibodies, respectively; for example, “hz31C81-1.1” and “hz31C81-1.2” represent humanized 31C81-1.1 and 31C81-1.2 antibodies, and “xi31C8” represents a chimeric 31C8 antibody.
On the technique in general: In flow cytometry, cells or beads pass a laser one at a time.

In experiment [2] the target is T1, human ST2 (hST2, Interleukin-1 …). Kind of experiment: cell-based or functional assay.
The target in experiment [3] is recombinant protein containing hST2 extracellular domain with human antibody heavy chain Fc tag (hST2-ECD-hFc) (human). Kind of experiment: competition ELISA, coated hST2-ECD-hFc, antibody then biotin-labeled hIL33 Avitag (competitor). The protocol:
Whether the anti-ST2 antibodies were able to block the binding of hIL33 to hST2 was determined based on ELISA. A high-adsorption 96-well plate was coated with 2 µg/mL hST2-ECD-hFc at 100 µL/well and incubated overnight at 4° C. After the antigen not adsorbed was well washed off, the non-specific binding sites were blocked with a blocking buffer (PBST containing 1% bovine serum albumin). After the plate was washed three times with a washing buffer (PBST, PBS containing 0.05% (v/v) Tween 20), the anti-ST2 antibodies (serially diluted 2-fold from an initial concentration of 66.67 nM to 8 concentrations) were added at 100 µL/well, and the plate was incubated at 37° C. for 1 h After the plate was washed 3 times with the washing buffer, 100 µL of biotin-labeled hIL33 Avitag (with a concentration of 0.1 µg/mL) was added to each well, and the plate was incubated at 37° C. for 1 h. After the plate was washed 3 times with the washing buffer, a 1:1000 diluted secondary antibody Avidin HRP (Jackson immunoresearch, 016-030-084) was added at 100 µL/well, and the plate was incubated at room temperature for 1 h After the plate was washed with the washing buffer, the substrate TMB solution (Thermo, 00-4201-56) was added at 100 µL/well, and the plate was incubated at room temperature for 3 min. 50 µL of a stop solution (2 N H₂SO₄) was added to terminate the reactions. Colorimetric signals were generated and read at 450 nm using a plate reader (PE, Envision). The data were analyzed using GraphPad Prism5, and the IC₅₀ values were calculated.
The humanized antibodies hz31C81-1.1 (the amino acid sequence of the heavy chain set forth in SEQ ID NO: 75 and the amino acid sequence of the light chain set forth in SEQ ID NO: 81) and hz31C8-1.2 (the amino acid sequence of the heavy chain set forth in SEQ ID NO: 77 and the amino acid sequence of the light chain set forth in SEQ ID NO: 81) were subjected to affinity, binding, blocking and cell function analyses using the methods described in Example 4, Example 5, Example 6, Example 7, Example 8, Example 9 and Example 10.
On the technique in general: In an ELISA, binding on a coated surface is turned into a signal by an enzyme label.

B1: Chimeric 31C8 (antibody, human IgG2, kappa, V domains shown)
VH: QVQLQQSGPELVRPGASVTLSCKASGYIFIDSEMHWVKQTPVHGLEWIGAIDPETGDTVYNQKFKGKATLTADKSSSTASMELSSLTSEDSAVYYCTGSTTDYYFAYWGQGTTLTVSS
VL: DIVMTQAAFSNPVTLGTSASISCRSSKSLLHSNGIIYLYWYLQKPGQSPQLLIYQMSNLASGVPDRFSSSGSGTDFTLRISRVEAEDVGVYYCAQNLELPFTFGSGTKLEIKR
notes: also called xi31C8
As a reminder, the EC50 is the concentration giving half of the maximal effect. A lower EC50 goes with a more potent agent. For orientation: IC50 means the concentration that gives 50% inhibition. In experiment [1], B1 gave an EC50 of 405 pM. Also, the “IC50, blocking of the IL33/ST2-induced IL5 secretion on CD4+ T cells (hIL33 plus IL2 co-stimulation)” value (shortened to “IC50, blocking”) in experiment [2] was 440 pM. Also, the IC50 in experiment [3] stood at 1930 pM.

B2: RG6149 (antibody Ab2 in CN104334582, prepared in-house) (antibody, human IgG2, kappa, V domains shown)
VH: EVQLVQSGAEVKKPGESLKISCKGSGYSFTNYWIGWVRQMPGKGLEWMGIIYPGNSDTRFSPSFQGQVTISADKSITTAYLQWSSLKASDTAMYYCARHGTSSDYYGLDVWGQGTTVTVSS
VL: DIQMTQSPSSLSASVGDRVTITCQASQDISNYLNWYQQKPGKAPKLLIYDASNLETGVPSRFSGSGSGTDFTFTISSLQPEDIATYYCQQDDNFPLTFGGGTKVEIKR
notes: Control anti-ST2 antibody
B2 gave an EC50 in experiment [1] of 581 pM. The “IC50, blocking” value in experiment [2] is 1820 pM. The IC50 in experiment [3] was 2150 pM.

B3: GSK3772847 (antibody STLM208 in CN104411333, prepared in-house) (antibody, human IgG2, kappa, V domains shown)
VH: EVQLLESGGGLVQPGGSLRLSCAASGFTFSIYDMIWVRQAPGKGLEWVSSIRGEGGGTYYADSVKGRFTISRDNSKNTLYLQMNSLRAEDTAVYYCARDPWSTEGSFFVLDYWGQGTLVTVSS
VL: EIVLTQSPATLSLSPGERATLSCRASQSVDDDLAWYQQKPGQAPRLLIYDASNRATGIPARFSGSGSGTDFTLTISSLEPEDFAVYYCQQYITAPLTFGQGTKVEIKR
notes: Control anti-ST2 antibody
B3 showed an EC50 in experiment [1] of 676 pM. In experiment [2], the “IC50, blocking” value amounted to 794 pM. Besides, the IC50 in experiment [3] was found to be 2530 pM.

B4: Humanized 31C8-1.1 (antibody, human IgG2, kappa, V domains shown)
VH: EVQLVQSGAEVKKPGATVKISCKASGYIFIDSEMHWVQQAPGKGLEWMGAIDPETGDTVYAEKFQGRVTITADKSSSTAYMELSSLRSEDTAVYYCTGSTTDYYFAYWGQGTLVTVSS
VL: DIQMTQSPSSLSASVGDRVTITCRSSKSLLHSNGIIYLYWYQQKPGKAPKLLIYQLSNLASGVPSRFSSSGSGTDFTLTISSLQPEDFATYYCAQNLELPFTFGQGTKVEIKR
notes: also called hz31C8-1.1; hz31C81-1.1
Take B4: in experiment [1], it took 384 pM to reach a half-maximal effect (EC50). The “IC50, blocking” value in experiment [2] was found to be 462 pM. For the same molecule, the half-inhibitory concentration (IC50) in experiment [3] is 1890 pM.

B5: Humanized 31C8-1.2 (antibody, human IgG2, kappa, V domains shown)
VH: QVQLVQSGAKVKKPGATVKISCKASGYIFIDSEMHWVQQAPGKGLEWMGAIDPETGDTVYAKKFKGRVTITADKSSSTAYMELSSLRSEDTAVYYCTGSTTDYYFAYWGQGTLVTVSS
VL: DIQMTQSPSSLSASVGDRVTITCRSSKSLLHSNGIIYLYWYQQKPGKAPKLLIYQLSNLASGVPSRFSSSGSGTDFTLTISSLQPEDFATYYCAQNLELPFTFGQGTKVEIKR
notes: also called hz31C8-1.2; hz31C81-1.2
As to B5, the EC50 in experiment [1] was 468 pM. Also, the “IC50, blocking” value in experiment [2] came out at 366 pM. For the same molecule, the IC50 in experiment [3] came to 2240 pM.
